The results in this text go back to publication PMC7909649, “Eukaryotic translation initiation factor 5A and its posttranslational modifications play an important role in proliferation and potentially in differentiation of the human enteric protozoan parasite Entamoeba histolytica” (PLoS Pathogens, 2021).

The assay deals with T1, Entamoeba histolytica deoxyhypusine synthase 1 (EhDHS1) with amino-terminal His-tag, co-expressed with EhDHS2 (Entamoeba histolytica, UniProt C4LXB8 1-331).
T1 construct: Deoxyhypusine synthase isotype 1 (EhDHS1) of Entamoeba histolytica, EHI_098350, XP_653614; the catalytically active isotype; also called His-tag DHS1; EHI_098350; source: E. coli BL21 (DE3), co-expressed with EhDHS2 from pETDuet-EhDHS1/2; in lysate and copurified on Ni2+-NTA; not shown: His tag, N-terminal, kept
T1 sequence (looked up): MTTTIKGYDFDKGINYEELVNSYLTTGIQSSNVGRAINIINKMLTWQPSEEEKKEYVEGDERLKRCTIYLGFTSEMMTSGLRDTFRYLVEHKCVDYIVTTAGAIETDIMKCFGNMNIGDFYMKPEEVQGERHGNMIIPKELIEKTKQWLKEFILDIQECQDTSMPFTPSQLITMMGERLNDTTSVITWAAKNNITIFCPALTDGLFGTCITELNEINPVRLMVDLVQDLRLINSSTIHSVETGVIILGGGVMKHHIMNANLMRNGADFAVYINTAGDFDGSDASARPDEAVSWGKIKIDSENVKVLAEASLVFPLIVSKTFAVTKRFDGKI
Put plainly: pull-down; Co-expression of His-EhDHS1 and EhDHS2-S-tag in E. coli BL21 (DE3); lysate (50 mM Tris-HCl pH 8.0, 300 mM NaCl, 10 mM imidazole, 0.1% Triton X-100) on Ni2+-NTA resin, 1 hr at 4°C; washed with 10-50 mM imidazole, eluted with 100-300 mM imidazole; immunoblot with anti-His and anti-S tag antibodies. The settings on record: partners not purified.

B1: Entamoeba histolytica deoxyhypusine synthase 2 (EhDHS2) with carboxyl-terminal S-tag, co-expressed with EhDHS1 (natural protein, UniProt C4M2N7 1-336, looked up)
chain: MSITGEEFAKVTSKVLGESKEYKGEKCIGYDFDNGVDFNKVMEKMKYTGFQALNLGLCIEQVNEMRKNHAKIFLGMSSNIVSSGLREVIHYLVKNKFVDAIVVTAGGIEEDFIKTMHPTLLGDFYFKGKELYPNGYNRIGNLILPNSNYCEFEDWMDPLLLECLKEQNEHGVHWTPSKLVHKMGESINNESSIYYWAAKNNIPVFSPAITDGSIGDMIFFFSYKNEGLVLDLVQDVIKIDEMAFNAEKVGCLLVGAGIAKHHILNAMKRRGGCDYCAMLSTSIECDASDAGSEIAADRTKGFFKPECNPAKVIGDATILLPLIVASTFAQKEEPTK
notes: Deoxyhypusine synthase isotype 2 (EhDHS2) of Entamoeba histolytica, EHI_006030, XP_653426; stop codon removed to fuse the C-terminal S-tag of pETDuet; also called S-tag DHS2; EHI_006030; source: E. coli BL21 (DE3), co-expressed with EhDHS1 from pETDuet-EhDHS1/2; in lysate and copurified on Ni2+-NTA; not shown: S-tag, C-terminal, kept
Take B1: the “stoichiometry N” value was 1 EhDHS1:EhDHS2.
